Values belong to the molecule of their own block, whether it stands above or below them. Where a SMILES comes first, the peptide text is derived from it. Bridges are numbered along the chain shown (N, C = ends). Where no end group is shown, it is not given here.
How the values were obtained:
[1] = biological target: T1, chip-linked Cys-S-MB (Homo sapiens, UniProt P07988, DEL226-262); test: SPR binding to chip-linked Cys-S-MB; details: HBS-EP buffer pH 7.4 with 0.005% P20, 37°C, 50 µl/min, 1 µg peptide/ml; mean
T1 construct: made in house; host or cells: chemical solid-phase peptide synthesis (Fmoc), no expression host
T1 sequence (P07988 with tags, fused parts or gaps DEL226-262): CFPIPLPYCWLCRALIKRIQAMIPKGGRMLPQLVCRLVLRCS
Procedure: (§1) The respective binding affinities of S-MB and MB, both to themselves (self-association) and to each other (cross-association), were measured with surface plasmon resonance (SPR) spectroscopy using a Biacore 3000 system (Biacore, Uppsala, Sweden), [59]. S-MB and MB, each with a cysteine added to its N-terminus, were chemically linked to a thiol Biacore chip (BR-1000-14, research grade, containing a carboxymethylated dextran matrix covalently attached to a gold film). Solutions of peptide in HBS-EP buffer (i.e., 10 mM Hepes, pH 7.4, 150 mM NaCl, 3 mM EDTA, 0.005% surfactant P20) were then flowed over the chip-linked peptide at a flow rate of 50 µl/min to determine binding affinity at 37°C. Assessment of peptide binding was determined with sensorgrams, in which the arbitrary response units (RU) were plotted as a function of time. Binding associated with control medium containing no peptide was subtracted from final affinity curves, and mean “on” and “off” rate constants (kon and koff) and the dissociation equilibrium constant (KD = koff/kon) were calculated using BIAevaluation Software Version 4.1 based on curve fitting form measurements at 1 µg peptide/ml buffer concentration. The sensor surface was regenerated using 10 mM HCl between sample injections.

[2] = biological target: T2, chip-linked Cys-MB (Homo sapiens, UniProt P07988, DEL226-262); test: SPR binding to chip-linked Cys-MB; details: HBS-EP buffer pH 7.4 with 0.005% P20, 37°C, 1 µg peptide/ml, mean; for koff / kon: 50 µl/min
T2 construct: made in house; host or cells: chemical solid-phase peptide synthesis (Fmoc), no expression host
Procedure: as §1

[3] = FTIR, methanol; ref [30]; cited from earlier work
Text: Although the “10 nsec” MD simulation of dimer S-MB provides a reasonable framework to account for our SDS-PAGE and SPR results (Figs. 8 and 10), it is worthwhile to consider other structural models by which the N-terminal insertion sequence may promote the self-association of S-MB. One possible alternative is that oligomeric S-MB may be due to the N-terminal sequence (residues 1-7) forming β-sheet. The N-terminal SP-B(1–9) (Fig. 2) was earlier proposed to act as a ‘biochemical Velcro®,’ facilitating in vivo either the aggregation of SP-B or the interactions of SP-B with SP-C [50]. In support ...

[4] = Captive bubble surfactometry, dynamic surface activity; format: physicochemical; details: for minimum surface tension: 1.5 mol% in synthetic lipids 16:10:6:1:2 (weight) DPPC:POPC:POPG:POPE:cholesterol, 20 cycles/min, ten cycles, 37°C, n = 4
Procedure: The captive bubble surfactometer used here was a fully-computerized version of that described by Schurch and co-workers [79]–[81]. In brief, the sample chamber of the apparatus was cut from high-quality cylindrical glass tubing (10 mm inner diameter). A Teflon® piston with a tight O-ring seal was fitted into the glass tubing from the top end, with a plug of buffered 1% agarose gel inserted between the piston and the surfactant solution that was added through a stainless steel port from the other end of the sample chamber. The chamber and piston were vertically mounted in a steel rack, the height of which was regulated by a precision micrometer gear. In a typical experiment, the chamber was filled with a buffered salt solution (140 mM NaCl, 10 mM HEPES, 2.5 mM CaCl2, pH 6.9) containing 10% sucrose. One µl of surfactant solution containing 35 µg of lipid was added to this subphase, which was stirred by a small magnetic bar at 37°C. The subphase volume in the sample chamber averaged 0.7 ml (0.5–1 ml), resulting in a final average surfactant lipid concentration of 50 µg/ml (35–75 µg/ml). An air bubble approximately 7 mm in diameter (∼200 µl in volume) was then introduced within the sample chamber and subjected to cyclic volume (surface area) changes by systematically varying the height of the steel rack following a 5 min pause to allow adsorption to the air-water interface. The ionic composition of the buffered agarose plug minimized bubble adhesion to the plug during cycling, so that an uninterrupted bubble interface was maintained. […] Bubble images were continuously monitored during compression-decompression using a digital video camera (PULNIX Model TM-200, Pulmix America Inc, Sunnyvale, CA) and a professional video recorder (Panasonic AG-1980P, Secaucus, NJ) coupled to a computer with an Intel Pentium 4 processor. […] Bubble areas and volumes were calculated by an original algorithm relating bubble height and diameter to areas of revolution, and bubble surface tension was determined by the method of Malcolm and Elliot. […]

[5] = system: ventilated rats with ARDS induced by in vivo lavage; test: Ventilated lung-lavaged rat model of ARDS; set-up: species or system Sprague-Dawley rats; details: n = 8–10; for relative order of pulmonary activity (oxygenation and compliance): 90 min after intratracheal 100 mg/kg surfactant; for arterial oxygenation (PaO2) / dynamic lung compliance: synthetic lipids +1.5 mol% peptide, 90 min; for arterial oxygenation (PaO2): 100% oxygen
Procedure: Animal experiments were performed under established protocols approved by the Animal Care and Use Committee at the Los Angeles Biomedical Research Institute at Harbor-UCLA Medical Center. Anesthesia, surgery, lavage, ventilation, and monitoring methods used have been detailed previously [35]–[37]. Briefly, adult male Sprague-Dawley rats weighing 200–225 g were anesthetized with 35 mg/kg pentobarbital sodium and 80 mg/kg ketamine by intraperitoneal injection, intubated, and ventilated with a rodent ventilator (Harvard Apparatus, South Natick, MA) with 100% oxygen, a tidal volume of 7.5 ml/kg and a rate of 60/min. An arterial line was placed in the abdominal aorta for measurements of arterial blood pressure and blood gases. Rats were paralyzed with 1 mg/kg pancuronium bromide intravenously. Only animals with PaO2 values >400 torr while ventilated with 100% oxygen and with normal blood pressure values were included in the experiments. Airway pressures were measured with a pressure transducer (Gould Inc., Cleveland, OH) and tidal volume with a pneumotachometer (Validyne, Northridge, CA) connected to a multi-channel recorder (Gould Inc., Cleveland, OH). The lungs were lavaged 8–12 times with 8 ml of pre-warmed 0.9% NaCl. After the PaO2 in 100% oxygen had reached stable values of <100 torr, the rats were treated with 100 mg/kg of experimental surfactant by intratracheal instillation. Arterial blood gases, tidal volume and airway pressures were determined at 15 min intervals throughout each experiment. Dynamic lung compliance was calculated by dividing tidal volume/kg body weight by changes in airway pressure (peak inspiratory pressure minus positive end-expiratory pressure) (mL/kg/cmH2O). Ninety minutes after surfactant instillation, rats were killed with 200 mg/kg pentobarbital sodium intravenously. Each treatment group consisted of 8–10 animals.

[6] = lipid monolayers containing palmitic acid; ref [31], [32]; cited from earlier work
Text: Previous structural and functional studies with synthetic peptides representing the N- and C-terminal regions of SP-B further support the hypothesis that these charged amphipathic helices participate in surfactant activities. […] The cationic N-terminus of SP-B may here interact with anionic lipids to remove the driving force for lipid squeeze-out from the surface film, [32]. In additional studies, SP-B(1–25 ...

[7] = biological target: T3, Cys-S-MB (Super Mini-B with a cysteine added to its N-terminus, chip-linked) (human); test: SPR; Biacore 3000; Cys-MB or Cys-S-MB linked to a thiol chip; MB or S-MB at 1 µg peptide/ml in HBS-EP (10 mM Hepes, pH 7.4, 150 mM NaCl, 3 mM EDTA, 0.005% surfactant P20) flowed over at 50 µl/min, 37°C; constants from curve fitting at the one concentration; details: both partners purified
T3 construct: cysteine added to the N-terminus to link the peptide to the thiol Biacore chip; surfactant protein B (SP-B), human, residues 1-25; numbers count on: the mature protein (79 residues); surfactant protein B (SP-B), human, residues 63-78; Immobilised on the SPR chip; also called chipped S-MB; N-terminal Cys-S-MB
T3 chain: T1 sequence (P07988 with tags, fused parts or gaps DEL226-262)

[8] = biological target: T4, Cys-MB (Mini-B with a cysteine added to its N-terminus, chip-linked) (human); test: as above; details: both partners purified
T4 construct: cysteine added to the N-terminus to link the peptide to the thiol Biacore chip; surfactant protein B (SP-B), human, residues 8-25; numbers count on: the mature protein (79 residues); surfactant protein B (SP-B), human, residues 63-78; Immobilised on the SPR chip; also called chipped MB; N-terminal Cys-MB
T4 chain: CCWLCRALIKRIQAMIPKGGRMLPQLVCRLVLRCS

[9] = intratracheal 100 mg/kg surfactant

koff [1]: 0.00806 s⁻¹
kon [1]: 200000 M⁻¹ s⁻¹
koff [2]: 0.0168 s⁻¹
kon [2]: 91900 M⁻¹ s⁻¹
Kd ([2]; KD = koff/kon): 183 nM
Molecule: CC[C@H](C)[C@@H]1NC(=O)[C@H](CCCNC(=N)N)NC(=O)[C@H](CCCCN)NC(=O)[C@H]([C@@H](C)CC)NC(=O)[C@H](CC(C)C)NC(=O)[C@H](C)NC(=O)[C@H](CCCNC(=N)N)NC(=O)[C@@H]2CSSC[C@H](NC(=O)[C@H](C(C)C)NC(=O)[C@H](CC(C)C)NC(=O)[C@H](CCC(N)=O)NC(=O)[C@@H]3CCCN3C(=O)[C@H](CC(C)C)NC(=O)[C@H](CCSC)NC(=O)[C@H](CCCNC(=N)N)NC(=O)CNC(=O)CNC(=O)[C@H](CCCCN)NC(=O)[C@@H]3CCCN3C(=O)[C@H]([C@@H](C)CC)NC(=O)[C@H](CCSC)NC(=O)[C@H](C)NC(=O)[C@H](CCC(N)=O)NC1=O)C(=O)N[C@@H](CCCNC(=N)N)C(=O)N[C@@H](CC(C)C)C(=O)N[C@@H](C(C)C)C(=O)N[C@@H](CC(C)C)C(=O)N[C@@H](CCCNC(=N)N)C(=O)N[C@H](C(=O)N[C@@H](CO)C(=O)O)CSSC[C@H](N)C(=O)N[C@@H](Cc1c[nH]c3ccccc13)C(=O)N[C@@H](CC(C)C)C(=O)N2 [MB] (H-CWLCRALIKRIQAMIPKGGRMLPQLVCRLVLRCS-OH; disulfide 1-33, 4-27)

koff [1]: 0.000901 s⁻¹
kon [1]: 44700 M⁻¹ s⁻¹
koff [2]: 0.00736 s⁻¹
kon [2]: 141000 M⁻¹ s⁻¹
Molecule: FPIPLPYCWLCRALIKRIQAMIPKGGRMLPQLVCRLVLRCS (disulfide 8-40, 11-34) [S-MB]

Molecule: SP-B(1–9): N-terminal SP-B(1–9) peptide (FPIPLPYCW; Pulmonary surfactant-associated protein B; UniProt P07988 201-209, looked up, fragment)
β-sheet content [3]: 26.3%
β-sheet content in residues [3]: ~2.4 residues

Molecule: H-FPIPLPYC-NH2 [SP-B(1–8)]
minimum surface tension [4]: 20 mN/m
statistical comparison of minimum surface tension ([4]; after ten cycles, versus S-MB, MB and pig SP-B surfactants): significantly higher
relative order of pulmonary activity (oxygenation and compliance) [5]: S-MB > MB > pig SP-B > SP-B(1–8)> lipids alone
arterial oxygenation (PaO2) [5, 9]: minimal effects
dynamic lung compliance [5, 9]: minimal effects

B1: SP-B: 79 amino acids, lipid-associating lung protein, covalently linked homodimer (protein, UniProt P07988 201-279, looked up)
Pulmonary …: FPIPLPYCWLCRALIKRIQAMIPKGALAVAVAQVCRVVPLVAGGICQCLAERYSVILLDTLLGRMLPQLVCRLVLRCSM
modifications: Pulmonary surfactant-associated protein B
notes: 79 amino acids, lipid-associating lung protein, covalently linked homodimer
collapse pressure of lipid monolayers [6]: increase the collapse pressure

Kd [7]: 40.4 nM
koff [7]: 0.00806 s⁻¹
kon [7]: 200000 M⁻¹ s⁻¹
Kd [8]: 183 nM
koff [8]: 0.0168 s⁻¹
kon [8]: 91900 M⁻¹ s⁻¹
B2: Mini-B (peptide)
chain: CWLCRALIKRIQAMIPKGGRMLPQLVCRLVLRCS
notes: surfactant protein B (SP-B), human, residues 8-25 (N-terminal helix region); numbers count on: the mature protein (79 residues); surfactant protein B (SP-B), human, residues 63-78 (C-terminal helix region); Oxidised form with intramolecular disulfides Cys-8 to Cys-40 and Cys-11 to Cys-34 (S-MB numbering); also called MB; source: synthetic peptide (Fmoc solid phase, HPLC-purified, air-oxidised)

B3: pig SP-B: native pig SP-B, positive control (protein, UniProt P15782 1-79, looked up)
Pulmonary …: FPIPLPFCWLCRTLIKRIQAVVPKGVLLKAVAQVCHVVPLPVGGICQCLAERYIVICLNMLLDRTLPQLVCGLVLRCSS
modifications: Pulmonary surfactant-associated protein B
notes: native pig SP-B, positive control
minimum surface tension [4]: < 3 mN/m
relative order of pulmonary activity (oxygenation and compliance) [5]: S-MB > MB > pig SP-B > SP-B(1–8)> lipids alone
arterial oxygenation (PaO2) [5, 9]: increased quickly
dynamic lung compliance [5, 9]: increased quickly
oxygenation and compliance versus SP-B1-8 and lipids only surfactants [5, 9]: consistently surpassed the performance of SP-B1-8 and lipids only surfactants (p<0.001)
significance of differences in oxygenation and compliance between S-MB, MB and pig SP-B [5, 9]: statistically significant (p<0.05) starting at 30 min after surfactant instillation

Source: article PMC2805716, “Critical Structural and Functional Roles for the N-Terminal Insertion Sequence in Surfactant Protein B Analogs” (PLoS ONE, 2010)
